Measured values published in article PMC5886718.

Key:
[1] = biological target: Glycine oxidase from Pseudoalteromonas luteoviolacea CPMOR-2 (PlGoxA) (Pseudoalteromonas luteoviolacea CPMOR-2); assay: SEC
[2] = biological target: Glycine oxidase from Pseudoalteromonas luteoviolacea CPMOR-2 (PlGoxA) (Pseudoalteromonas luteoviolacea CPMOR-2); assay: crystal structure

stoichiometry N [1]: 4
stoichiometry N [2]: 4
Substance: Glycine oxidase from Pseudoalteromonas luteoviolacea CPMOR-2 (PlGoxA) (enzyme)
